Experimental data from patent US20170088585A1 (BAR ILAN UNIVERSITY, published 2017).
Square brackets hold non-standard residues; d marks the D form.

B1: [aLwHsK]: Cyclo-D-alanine-L-leucine-D-tryptophan-L-histidine-D-serine-L-lysine (peptide)
peptide: cyclo([dA]L[dW]H[dS]K)
SMILES: CC(C)C[C@@H]1NC(=O)[C@@H](C)NC(=O)[C@H](CCCCN)NC(=O)[C@@H](CO)NC(=O)[C@H](Cc2c[nH]cn2)NC(=O)[C@@H](Cc2c[nH]c3ccccc23)NC1=O
B2: [lLwHsA]: Cyclo-D-leucine-L-leucine-D-tryptophan-L-histidine-D-serine-L-alanine (peptide)
peptide: cyclo([dL]L[dW]H[dS]A)
SMILES: CC(C)C[C@@H]1NC(=O)[C@@H](CC(C)C)NC(=O)[C@H](C)NC(=O)[C@@H](CO)NC(=O)[C@H](Cc2c[nH]cn2)NC(=O)[C@@H](Cc2c[nH]c3ccccc23)NC1=O
B3: [lLwAsK]: Cyclo-D-leucine-L-leucine-D-tryptophan-L-alanine-D-serine-L-lysine (peptide)
peptide: cyclo([dL]L[dW]A[dS]K)
SMILES: CC(C)C[C@@H]1NC(=O)[C@@H](CC(C)C)NC(=O)[C@H](CCCCN)NC(=O)[C@@H](CO)NC(=O)[C@H](C)NC(=O)[C@@H](Cc2c[nH]c3ccccc23)NC1=O
B4: [lLwHsK]: Cyclo-D-leucine-L-leucine-D-tryptophan-L-histidine-D-serine-L-lysine (peptide)
peptide: cyclo([dL]L[dW]H[dS]K)
SMILES: CC(C)C[C@@H]1NC(=O)[C@@H](CC(C)C)NC(=O)[C@H](CCCCN)NC(=O)[C@@H](CO)NC(=O)[C@H](Cc2c[nH]cn2)NC(=O)[C@@H](Cc2c[nH]c3ccccc23)NC1=O
B5: [lAwHsK]: Cyclo-D-leucine-L-alanine-D-tryptophan-L-histidine-D-serine-L-lysine (peptide)
peptide: cyclo([dL]A[dW]H[dS]K)
SMILES: CC(C)C[C@H]1NC(=O)[C@H](CCCCN)NC(=O)[C@@H](CO)NC(=O)[C@H](Cc2c[nH]cn2)NC(=O)[C@@H](Cc2c[nH]c3ccccc23)NC(=O)[C@H](C)NC1=O
B6: [lLwHaK]: Cyclo-D-leucine-L-leucine-D-tryptophan-L-histidine-D-alanine-L-lysine (peptide)
peptide: cyclo([dL]L[dW]H[dA]K)
SMILES: CC(C)C[C@@H]1NC(=O)[C@@H](CC(C)C)NC(=O)[C@H](CCCCN)NC(=O)[C@@H](C)NC(=O)[C@H](Cc2c[nH]cn2)NC(=O)[C@@H](Cc2c[nH]c3ccccc23)NC1=O
B7: [lLaHsK]: Cyclo-D-leucine-L-leucine-D-alanine-L-histidine-D-serine-L-lysine (peptide)
peptide: cyclo([dL]L[dA]H[dS]K)
SMILES: CC(C)C[C@@H]1NC(=O)[C@@H](CC(C)C)NC(=O)[C@H](CCCCN)NC(=O)[C@@H](CO)NC(=O)[C@H](Cc2c[nH]cn2)NC(=O)[C@@H](C)NC1=O

Target: Aβ40 (UniProt P05067 672-711)
Assay: cell-based or functional assay

Aβ40, sequence (P05067 672-711 limits assumed): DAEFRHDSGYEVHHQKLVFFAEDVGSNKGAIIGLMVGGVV

Binder	Inhibition at 1:1 (ThT assay, Aβ:cyclic peptide)	Inhibition at 1:1/3 (ThT assay, Aβ:cyclic peptide)
B1	53%	12%
B2	67%	48%
B3	73%	49%
B4	60%	32%
B5	44%	3%
B6	56%	47%
B7	4%	5%
